According to patent publication US20190119378A1:
Positions count from the first letter of the chain named.

Columns and labels:
[1] = molecular target: sRAGE antigen (biotin-labeled); assay: ELISA: antibody coated on plate, serial dilution of biotinylated sRAGE, HRP-streptavidin detection, Prism non-linear fit
[2] = molecular target: sRAGE antigen (biotin-labeled); assay: ELISA with biotinylated sRAGE
[3] = molecular target: sRAGE antigen (biotin-labeled); assay: ELISA: antibody coated on plate, serial dilution of biotinylated sRAGE, HRP-streptavidin detection, Prism non-linear fit; remark: listed apart in the source

B1: humanized anti-RAGE antibody, full-length IgG1 (antibody, V domains shown)
VH: QVQLQESGPGLVKPSQTLSLTCAVYGGSITSGYYWNWIRQPPGKGLEWIGDISYDGSNNYNPSLKSRVTISRDTSKNQFSLKLSSVTAADTAVYYCVREDRSGYPPFANWGQGTLVTVSS
VL: DIQMTQSPSSLSASVGDRVTITCQASQDISNYLNWYQQKPGKAPKLLIYYTSRLHSGVPSRFSGSGSGTDFTFTISSLQPEDIATYYCQQGNTLPWTFGQGTKV
[1]
  Kd: 42.1 nM
[2]
  Kd: 133 nM

B2: original murine anti-RAGE monoclonal antibody (IgG2a isotype with a Kappa light chain) (antibody, V domains shown)
VH: DVQLQESGPGLVKPSQSLSLNCSVTGSSITSGYYWNWIRQFPGNKLEWMGDISYDGSNNYNPSLKNRISITRDTSKNQVFMKLNSVTTEDTAIYKCVREDRSGYPPFANWGQGTLVTVSA
VL: DVQMTQTTSSLSASLGDRVTINCRASQDISNYLNWYQQKPDGTVKLLIYYTSRLHSGVPSRFSGSGSGTDYSLTISNLEQEDIATYFCQQGNTLPWTFGGGTKLEIK
[3]
  Kd: 58 nM
[1]
  Kd: 88.4 nM
[2]
  Kd: 62.6 nM

B3: mouse-human chimera anti-RAGE antibody (antibody, human IgG1, kappa, V domains shown)
VH: B2 VH with A120S
VL: DIQMTQTTSSLSASLGDRVTINCRASQDISNYLNWYQQKPDGTVKLLIYYTSRLHSGVPSRFSGSGSGTDYSLTISNLEQEDIATYFCQQGNTLPWTFGQGTKVEIKR
[3]
  Kd: 40 nM
[1]
  Kd: 38.7 nM
[2]
  Kd: 104 nM
